According to publication PMC9482650, “Quantitative fragmentomics allow affinity mapping of interactomes” (Nature Communications, 2022):

T1: MPDZ_10, O75970
T1 sequence (O75970 1624-1722, limits assumed, looked up): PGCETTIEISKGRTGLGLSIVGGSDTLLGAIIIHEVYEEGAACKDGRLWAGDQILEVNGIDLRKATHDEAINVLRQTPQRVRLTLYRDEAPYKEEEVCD

T2: MPP7, Q5T2T1
T2 sequence (Q5T2T1 134-230, limits assumed, looked up): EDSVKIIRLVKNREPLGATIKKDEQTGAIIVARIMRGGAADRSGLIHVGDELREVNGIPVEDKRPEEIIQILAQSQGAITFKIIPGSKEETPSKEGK

T3: ARHGAP21, Q5T5U3
T3 sequence (Q5T5U3 45-169, limits assumed, looked up): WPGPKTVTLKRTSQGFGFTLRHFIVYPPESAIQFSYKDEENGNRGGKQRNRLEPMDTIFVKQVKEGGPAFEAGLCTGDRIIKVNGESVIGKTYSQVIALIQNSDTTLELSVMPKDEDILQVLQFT

T4: DVL3, Q92997
T4 sequence (Q92997 244-331, limits assumed, looked up): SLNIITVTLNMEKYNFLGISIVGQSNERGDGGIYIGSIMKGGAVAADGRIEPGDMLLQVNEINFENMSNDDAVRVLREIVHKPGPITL

T5: APBA3_1, O96018
T5 sequence (O96018 389-490, limits assumed, looked up): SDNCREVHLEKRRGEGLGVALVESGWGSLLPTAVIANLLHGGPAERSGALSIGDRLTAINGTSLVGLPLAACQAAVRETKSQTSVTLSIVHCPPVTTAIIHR

T6: NHERF3_4, Q5T2W1
T6 sequence (Q5T2W1 373-468, limits assumed, looked up): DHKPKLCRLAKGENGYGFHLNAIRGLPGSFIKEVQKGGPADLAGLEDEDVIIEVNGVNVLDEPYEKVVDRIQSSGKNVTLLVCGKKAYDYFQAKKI

T7: CARD11, Q9BXL7
T7 sequence (Q9BXL7 662-765, limits assumed, looked up): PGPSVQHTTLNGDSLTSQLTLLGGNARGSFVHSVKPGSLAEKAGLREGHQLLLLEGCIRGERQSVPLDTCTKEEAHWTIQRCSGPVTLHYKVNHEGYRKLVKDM

T8: RADIL, Q96JH8
T8 sequence (Q96JH8 971-1071, limits assumed, looked up): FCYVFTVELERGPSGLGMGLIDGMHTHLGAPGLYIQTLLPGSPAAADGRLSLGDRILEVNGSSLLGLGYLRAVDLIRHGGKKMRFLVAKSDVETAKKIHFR


Biological target: MAGI2_4, Q86UL8
Sequence (Q86UL8 772-865): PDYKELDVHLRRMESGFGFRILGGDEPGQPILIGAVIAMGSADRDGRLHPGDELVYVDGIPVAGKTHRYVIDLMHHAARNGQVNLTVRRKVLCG
Assay: holdup assay
Set-up: key: below the threshold = too weak to quantify, mostly under pKd 3.1 to 4
Details: plain residues with an end cap or a label only (N-terminal biotin on a linker: ado-ado)

Binder	pKd
WRSKRTDTLL [RAMP3, O60896]	3.91

Biological target: GORASP1, Q9BQQ3
Sequence (Q9BQQ3 1-208): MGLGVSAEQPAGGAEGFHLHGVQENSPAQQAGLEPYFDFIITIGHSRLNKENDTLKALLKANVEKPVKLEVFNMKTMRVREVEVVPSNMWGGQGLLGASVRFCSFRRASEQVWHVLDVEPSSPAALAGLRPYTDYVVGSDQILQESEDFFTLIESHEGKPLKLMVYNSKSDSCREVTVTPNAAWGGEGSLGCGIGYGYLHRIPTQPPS
Assay: holdup assay
Set-up: key: below the threshold = too weak to quantify, mostly under pKd 3.1 to 4
Details: plain residues with an end cap or a label only (N-terminal biotin on a linker: ado-ado)

Binder	pKd
WRSKRTDTLL [RAMP3, O60896]	3.78

Biological target: T1, MPDZ_10, O75970
Assay: holdup assay
Set-up: key: below the threshold = too weak to quantify, mostly under pKd 3.1 to 4
Details: plain residues with an end cap or a label only (N-terminal biotin on a linker: ado-ado)

Binder	pKd
WRSKRTDTLL [RAMP3, O60896]	below the threshold

Biological target: T2, MPP7, Q5T2T1
Assay: holdup assay
Set-up: key: below the threshold = too weak to quantify, mostly under pKd 3.1 to 4
Details: plain residues with an end cap or a label only (N-terminal biotin on a linker: ado-ado)

Binder	pKd
WRSKRTDTLL [RAMP3, O60896]	below the threshold

Biological target: ARHGEF12, Q9NZN5-2
Sequence (Q9NZN5 other isoform, or with tags, fused parts or gaps): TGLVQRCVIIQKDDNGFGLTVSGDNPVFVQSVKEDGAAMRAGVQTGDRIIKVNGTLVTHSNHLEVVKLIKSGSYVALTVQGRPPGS
Assay: holdup assay
Set-up: key: below the threshold = too weak to quantify, mostly under pKd 3.1 to 4
Details: plain residues with an end cap or a label only (N-terminal biotin on a linker: ado-ado)

Binder	pKd
WRSKRTDTLL [RAMP3, O60896]	4.03

Biological target: T3, ARHGAP21, Q5T5U3
Assay: holdup assay
Set-up: key: below the threshold = too weak to quantify, mostly under pKd 3.1 to 4
Details: plain residues with an end cap or a label only (N-terminal biotin on a linker: ado-ado)

Binder	pKd
WRSKRTDTLL [RAMP3, O60896]	4.27

Biological target: NOS1, P29475
Sequence (P29475 9-101): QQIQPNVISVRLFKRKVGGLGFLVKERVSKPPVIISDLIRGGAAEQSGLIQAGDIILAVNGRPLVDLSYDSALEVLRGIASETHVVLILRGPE
Assay: holdup assay
Set-up: key: below the threshold = too weak to quantify, mostly under pKd 3.1 to 4
Details: plain residues with an end cap or a label only (N-terminal biotin on a linker: ado-ado)

Binder	pKd
WRSKRTDTLL [RAMP3, O60896]	3.89

Biological target: Inadl_6, Q8NI35
Sequence (Q8NI35 1058-1167): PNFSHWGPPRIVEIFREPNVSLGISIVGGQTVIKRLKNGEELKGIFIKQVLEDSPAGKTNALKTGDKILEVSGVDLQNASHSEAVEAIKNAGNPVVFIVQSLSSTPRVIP
Assay: holdup assay
Set-up: key: below the threshold = too weak to quantify, mostly under pKd 3.1 to 4
Details: plain residues with an end cap or a label only (N-terminal biotin on a linker: ado-ado)

Binder	pKd
WRSKRTDTLL [RAMP3, O60896]	below the threshold

Biological target: GRIP2_5, Q9C0E4
Sequence (Q9C0E4 544-642): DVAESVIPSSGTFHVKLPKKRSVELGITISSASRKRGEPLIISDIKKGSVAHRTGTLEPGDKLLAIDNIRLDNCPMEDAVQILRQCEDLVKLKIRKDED
Assay: holdup assay
Set-up: key: below the threshold = too weak to quantify, mostly under pKd 3.1 to 4
Details: plain residues with an end cap or a label only (N-terminal biotin on a linker: ado-ado)

Binder	pKd
WRSKRTDTLL [RAMP3, O60896]	below the threshold

Biological target: DLG4_1, P78352
Sequence (P78352 62-152): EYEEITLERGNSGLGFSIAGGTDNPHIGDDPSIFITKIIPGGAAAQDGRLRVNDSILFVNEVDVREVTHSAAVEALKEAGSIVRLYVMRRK
Assay: holdup assay
Set-up: key: below the threshold = too weak to quantify, mostly under pKd 3.1 to 4
Details: plain residues with an end cap or a label only (N-terminal biotin on a linker: ado-ado)

Binder	pKd
WRSKRTDTLL [RAMP3, O60896]	4.02

Biological target: LDB3, O75112
Sequence (O75112 1-94): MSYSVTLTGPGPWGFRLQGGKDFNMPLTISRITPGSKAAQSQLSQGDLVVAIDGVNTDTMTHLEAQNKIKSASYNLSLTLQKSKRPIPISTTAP
Assay: holdup assay
Set-up: key: below the threshold = too weak to quantify, mostly under pKd 3.1 to 4
Details: plain residues with an end cap or a label only (N-terminal biotin on a linker: ado-ado)

Binder	pKd
WRSKRTDTLL [RAMP3, O60896]	below the threshold

Biological target: T4, DVL3, Q92997
Assay: holdup assay
Set-up: key: below the threshold = too weak to quantify, mostly under pKd 3.1 to 4
Details: plain residues with an end cap or a label only (N-terminal biotin on a linker: ado-ado)

Binder	pKd
WRSKRTDTLL [RAMP3, O60896]	below the threshold

Biological target: T5, APBA3_1, O96018
Assay: holdup assay
Set-up: key: below the threshold = too weak to quantify, mostly under pKd 3.1 to 4
Details: plain residues with an end cap or a label only (N-terminal biotin on a linker: ado-ado)

Binder	pKd
WRSKRTDTLL [RAMP3, O60896]	below the threshold

Biological target: Inadl_10, Q8NI35
Sequence (Q8NI35 1673-1763): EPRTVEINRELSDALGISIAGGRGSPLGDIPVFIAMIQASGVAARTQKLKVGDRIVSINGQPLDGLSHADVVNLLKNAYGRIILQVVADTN
Assay: holdup assay
Set-up: key: below the threshold = too weak to quantify, mostly under pKd 3.1 to 4
Details: plain residues with an end cap or a label only (N-terminal biotin on a linker: ado-ado)

Binder	pKd
WRSKRTDTLL [RAMP3, O60896]	below the threshold

Biological target: LNX1_2, Q8TBB1
Sequence (Q8TBB1 371-470): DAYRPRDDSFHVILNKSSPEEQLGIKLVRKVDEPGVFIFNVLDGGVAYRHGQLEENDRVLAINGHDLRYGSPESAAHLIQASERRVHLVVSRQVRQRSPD
Assay: holdup assay
Set-up: key: below the threshold = too weak to quantify, mostly under pKd 3.1 to 4
Details: plain residues with an end cap or a label only (N-terminal biotin on a linker: ado-ado)

Binder	pKd
WRSKRTDTLL [RAMP3, O60896]	below the threshold

Biological target: PTPN3, P26045
Sequence (P26045 505-587): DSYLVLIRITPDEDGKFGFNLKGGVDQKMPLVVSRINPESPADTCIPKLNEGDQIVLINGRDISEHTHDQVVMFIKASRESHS
Assay: holdup assay
Set-up: key: below the threshold = too weak to quantify, mostly under pKd 3.1 to 4
Details: plain residues with an end cap or a label only (N-terminal biotin on a linker: ado-ado)

Binder	pKd
WRSKRTDTLL [RAMP3, O60896]	4.22

Biological target: LNX1_1, Q8TBB1
Sequence (Q8TBB1 261-371): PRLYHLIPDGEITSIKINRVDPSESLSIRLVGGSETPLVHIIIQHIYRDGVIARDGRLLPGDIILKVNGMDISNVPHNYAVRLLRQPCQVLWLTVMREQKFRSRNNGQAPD
Assay: holdup assay
Set-up: key: below the threshold = too weak to quantify, mostly under pKd 3.1 to 4
Details: plain residues with an end cap or a label only (N-terminal biotin on a linker: ado-ado)

Binder	pKd
WRSKRTDTLL [RAMP3, O60896]	below the threshold

Biological target: FRMPD4, Q14CM0
Sequence (Q14CM0 67-160): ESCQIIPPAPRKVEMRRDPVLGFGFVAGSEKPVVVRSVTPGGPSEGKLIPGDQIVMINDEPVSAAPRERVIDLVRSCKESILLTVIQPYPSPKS
Assay: holdup assay
Set-up: key: below the threshold = too weak to quantify, mostly under pKd 3.1 to 4
Details: plain residues with an end cap or a label only (N-terminal biotin on a linker: ado-ado)

Binder	pKd
WRSKRTDTLL [RAMP3, O60896]	4.7

Biological target: SCRIB_3, Q14160
Sequence (Q14160 999-1103): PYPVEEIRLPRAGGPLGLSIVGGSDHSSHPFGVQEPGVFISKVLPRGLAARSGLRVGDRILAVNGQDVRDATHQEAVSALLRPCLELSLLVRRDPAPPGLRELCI
Assay: holdup assay
Set-up: key: below the threshold = too weak to quantify, mostly under pKd 3.1 to 4
Details: plain residues with an end cap or a label only (N-terminal biotin on a linker: ado-ado)

Binder	pKd
WRSKRTDTLL [RAMP3, O60896]	3.98

Biological target: MAGI2_3, Q86UL8
Sequence (Q86UL8 600-682): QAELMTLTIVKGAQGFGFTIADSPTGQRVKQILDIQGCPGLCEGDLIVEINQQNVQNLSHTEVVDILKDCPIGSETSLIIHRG
Assay: holdup assay
Set-up: key: below the threshold = too weak to quantify, mostly under pKd 3.1 to 4
Details: plain residues with an end cap or a label only (N-terminal biotin on a linker: ado-ado)

Binder	pKd
WRSKRTDTLL [RAMP3, O60896]	below the threshold

Biological target: T6, NHERF3_4, Q5T2W1
Assay: holdup assay
Set-up: key: below the threshold = too weak to quantify, mostly under pKd 3.1 to 4
Details: plain residues with an end cap or a label only (N-terminal biotin on a linker: ado-ado)

Binder	pKd
WRSKRTDTLL [RAMP3, O60896]	3.53

Biological target: Inadl_9, Q8NI35
Sequence (Q8NI35 1530-1615): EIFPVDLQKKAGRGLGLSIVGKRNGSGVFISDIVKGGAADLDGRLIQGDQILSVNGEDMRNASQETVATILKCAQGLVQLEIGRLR
Assay: holdup assay
Set-up: key: below the threshold = too weak to quantify, mostly under pKd 3.1 to 4
Details: plain residues with an end cap or a label only (N-terminal biotin on a linker: ado-ado)

Binder	pKd
WRSKRTDTLL [RAMP3, O60896]	below the threshold

Biological target: PDZRN4_1, Q6ZMN7
Sequence (Q6ZMN7 213-318): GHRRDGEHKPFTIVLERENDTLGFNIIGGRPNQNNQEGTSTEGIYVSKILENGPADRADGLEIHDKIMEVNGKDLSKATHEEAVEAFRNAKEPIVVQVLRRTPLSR
Assay: holdup assay
Set-up: key: below the threshold = too weak to quantify, mostly under pKd 3.1 to 4
Details: plain residues with an end cap or a label only (N-terminal biotin on a linker: ado-ado)

Binder	pKd
WRSKRTDTLL [RAMP3, O60896]	3.75

Biological target: MAGI3_2, Q5TCQ9
Sequence (Q5TCQ9 398-503): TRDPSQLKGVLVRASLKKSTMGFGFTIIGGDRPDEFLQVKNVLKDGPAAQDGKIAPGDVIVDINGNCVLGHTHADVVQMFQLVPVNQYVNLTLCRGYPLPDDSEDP
Assay: holdup assay
Set-up: key: below the threshold = too weak to quantify, mostly under pKd 3.1 to 4
Details: plain residues with an end cap or a label only (N-terminal biotin on a linker: ado-ado)

Binder	pKd
WRSKRTDTLL [RAMP3, O60896]	4.37

Biological target: T7, CARD11, Q9BXL7
Assay: holdup assay
Set-up: key: below the threshold = too weak to quantify, mostly under pKd 3.1 to 4
Details: plain residues with an end cap or a label only (N-terminal biotin on a linker: ado-ado)

Binder	pKd
WRSKRTDTLL [RAMP3, O60896]	below the threshold

Biological target: FRMPD2_3, Q68DX3
Sequence (Q68DX3 1073-1166): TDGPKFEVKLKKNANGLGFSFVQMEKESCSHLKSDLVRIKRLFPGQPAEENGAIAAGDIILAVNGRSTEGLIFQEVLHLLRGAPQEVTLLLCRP
Assay: holdup assay
Set-up: key: below the threshold = too weak to quantify, mostly under pKd 3.1 to 4
Details: plain residues with an end cap or a label only (N-terminal biotin on a linker: ado-ado)

Binder	pKd
WRSKRTDTLL [RAMP3, O60896]	below the threshold

Biological target: MAGI2_2, Q86UL8
Sequence (Q86UL8 410-522): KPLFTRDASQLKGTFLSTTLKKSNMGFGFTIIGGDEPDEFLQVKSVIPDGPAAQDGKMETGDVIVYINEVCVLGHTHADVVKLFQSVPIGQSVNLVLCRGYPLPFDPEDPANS
Assay: holdup assay
Set-up: key: below the threshold = too weak to quantify, mostly under pKd 3.1 to 4
Details: plain residues with an end cap or a label only (N-terminal biotin on a linker: ado-ado)

Binder	pKd
WRSKRTDTLL [RAMP3, O60896]	4.23

Biological target: T8, RADIL, Q96JH8
Assay: holdup assay
Set-up: key: below the threshold = too weak to quantify, mostly under pKd 3.1 to 4
Details: plain residues with an end cap or a label only (N-terminal biotin on a linker: ado-ado)

Binder	pKd
WRSKRTDTLL [RAMP3, O60896]	3.57

Biological target: DLG2_2, Q15700
Sequence (Q15700 189-283): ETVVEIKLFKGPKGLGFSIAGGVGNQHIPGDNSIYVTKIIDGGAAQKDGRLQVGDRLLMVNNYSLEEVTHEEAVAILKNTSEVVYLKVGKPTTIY
Assay: holdup assay
Set-up: key: below the threshold = too weak to quantify, mostly under pKd 3.1 to 4
Details: plain residues with an end cap or a label only (N-terminal biotin on a linker: ado-ado)

Binder	pKd
WRSKRTDTLL [RAMP3, O60896]	3.51

Biological target: MAGI1_1, Q96QZ7
Sequence (Q96QZ7 1-106): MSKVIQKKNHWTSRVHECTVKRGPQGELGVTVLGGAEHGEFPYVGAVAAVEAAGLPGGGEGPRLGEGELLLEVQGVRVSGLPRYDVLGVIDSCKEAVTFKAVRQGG
Assay: holdup assay
Set-up: key: below the threshold = too weak to quantify, mostly under pKd 3.1 to 4
Details: plain residues with an end cap or a label only (N-terminal biotin on a linker: ado-ado)

Binder	pKd
WRSKRTDTLL [RAMP3, O60896]	below the threshold
